{"source": "paper doi:10.1101/2021.02.05.429900", "assay_in_all_cases": "FRET or BRET", "key": {"[1]": {"target": "Gβ3 with cpVenus-Gγ9 (Gβγ of the G13 BRET sensor) (UniProt P16520)", "sequence (P16520 whole entry, chain 1 of 2)": "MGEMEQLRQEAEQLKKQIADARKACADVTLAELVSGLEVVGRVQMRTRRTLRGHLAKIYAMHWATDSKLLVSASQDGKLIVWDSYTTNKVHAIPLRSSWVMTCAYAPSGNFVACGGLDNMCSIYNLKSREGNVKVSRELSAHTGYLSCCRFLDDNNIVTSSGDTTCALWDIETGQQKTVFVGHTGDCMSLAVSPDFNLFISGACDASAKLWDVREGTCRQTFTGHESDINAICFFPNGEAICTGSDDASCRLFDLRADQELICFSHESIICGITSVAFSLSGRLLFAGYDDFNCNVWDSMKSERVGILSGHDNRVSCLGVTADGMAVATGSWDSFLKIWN", "sequence (O14610 whole entry, chain 2 of 2, further chain)": "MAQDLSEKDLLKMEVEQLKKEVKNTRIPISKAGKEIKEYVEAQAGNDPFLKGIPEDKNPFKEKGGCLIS"}, "[2]": {"target": "cpVenus-tagged Gβγ of the G15 BRET sensor (UniProt P62873)"}, "[3]": {"target": "cpVenus-tagged Gβγ of the Gs BRET sensor (UniProt P62873)"}}, "data": [{"substance": "Gα13-Nluc (G13 BRET sensor) (from UniProt Q14344 1-377) (natural protein)", "values": [{"measurement": "amplitude of the BRET response (ΔBRET) on agonist activation of TBXA2R", "setting": "[1]", "value": -35, "unit": "%"}]}, {"substance": "Nluc-tagged Gα15 (G15 BRET sensor) (from UniProt P30679 1-374) (natural protein)", "values": [{"measurement": "amplitude of the BRET response (ΔBRET) on agonist activation of TBXA2R", "setting": "[2]", "value": -10, "unit": "%"}]}, {"substance": "Nluc-tagged Gαs (Gs BRET sensor) (from UniProt P63092 1-394) (natural protein)", "values": [{"measurement": "amplitude of the BRET response (ΔBRET) on agonist activation of β2AR", "setting": "[3]", "value": -10, "unit": "%"}]}]}
